Source: patent US9493781B2, “Synthetic brassica-derived chloroplast transit peptides” (DOW AGROSCIENCES LLC, priority 2012, dated 2016)

Columns and labels:
Format in all cases: in vivo, Arabidopsis thaliana
Arabidopsis [1] = assay: dgt-31, dgt-32, dgt-33 v1 transformed T1 Arabidopsis response to glyphosate, % visual injury 2 WAT
Protocol: Selection of transformed plants. Freshly harvested T1 seed [dgt-31, dgt-32, and dgt-33 v1 gene] were allowed to dry at room temperature and shipped to Indianapolis for testing. T1 seed was sown in 26.5×51-cm germination trays (T.O. Plastics Inc., Clearwater, Minn.), each receiving a 200 mg aliquots of stratified T1 seed (˜10,000 seed) that had previously been suspended in 40 mL of 0.1% agarose solution and stored at 4° C. for 2 days to complete dormancy requirements and ensure synchronous seed germination.
Sunshine Mix LP5 (Sun Gro Horticulture Inc., Bellevue, Wash.) was covered with fine vermiculite and subirrigated with Hoagland's solution until wet, then allowed to gravity drain. Each 40 mL aliquot of stratified seed was sown evenly onto the vermiculite with a pipette and covered with humidity domes (KORD™ Products, Bramalea, Ontario, Canada) for 4-5 days. Domes were removed once plants had germinated prior to initial transformant selection using glufosinate postemergence spray (selecting for the co-transformed dsm-2 gene).
Six days after planting (DAP) and again 10 DAP, T1 plants (cotyledon and 2-4-lf stage, respectively) were sprayed with a 0.1% solution of IGNITE™ herbicide (280 g ai/L glufosinate, Bayer Crop Sciences, Kansas City, Mo.) at a spray volume of 10 mL/tray (703 L/ha) using a DeVilbiss™ compressed air spray tip to deliver an effective rate of 200 g ae/ha glufosinate per application. Survivors (plants actively growing) were identified 4-7 days after the final spraying. Surviving plants were transplanted individually into 3-inch pots prepared with potting media (Metro Mix 360™). Plants reared in the greenhouse at least 1 day prior to tissue sampling for copy number analyses.
T1 plants were sampled and copy number analysis for the dgt-31, dgt-32, and dgt-33 v1 gene were completed. T1 plants were then assigned to various rates of glyphosate so that a range of copies were among each rate. For Arabidopsis, 26.25 g ae/ha glyphosate is an effective dose to distinguish sensitive plants from ones with meaningful levels of resistance. Elevated rates were applied to determine relative levels of resistance (105, 420, 1680, or 3360 g ae/ha).
All glyphosate herbicide applications were made by track sprayer in a 187 L/ha spray volume. Glyphosate used was of the commercial Durango dimethylamine salt formulation (480 g ae/L, Dow AgroSciences, LLC).
T1 plants selected above were subsequently transplanted to individual pots and sprayed with various rates of commercial glyphosate. Table 16 compares the response of dgt-31, dgt-32, and dgt-33 v1 and control genes to impart glyphosate resistance to Arabidopsis T1 transformants. Response is presented in terms of % visual injury 2 WAT. […] An arithmetic mean and standard deviation is presented for each treatment. […]

Arabidopsis [2] = assay: dgt-28, dgt-32, dgt-33, dgt-3, dgt-7 transformed Arabidopsis (T1, T2, T3) response to postemergence glyphosate, % visual injury; conditions: for % Injury Ave / % Injury Range (%) / No. plants with 20-40% injury / No. plants with <20% injury / No. plants with >40% injury: 14 days after application; for Glyphosate tolerance: T1 Arabidopsis
In short: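 Transgenic T1, T2 and T3 Arabidopsis (low-copy events for T2/T3, hemizygous and homozygous in T2) sprayed postemergence with glyphosate at 105, 420, 1,680 or 3,360 g ae/ha. Visual injury scored 2 weeks after treatment as mean, SD and range. Non-transformed Columbia served as sensitive control.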

Arabidopsis [3] = assay: Heritability progeny test of T1 families (T2 plants) with glufosinate, Arabidopsis; conditions: progeny test of 100 T2 plants, glufosinate 200 g ae/ha
In short: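 Self-pollinated T1 Arabidopsis events gave T2 seed; 100 random T2 siblings were sprayed with glufosinate at 200 g ae/ha and scored resistant/sensitive, segregation tested by Chi square against 3:1.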

[4] = Table 8, T1 Arabidopsis, 105 g ae/ha glyphosate
[5] = Table 8, T1 Arabidopsis, 420 g ae/ha glyphosate
[6] = Table 8, T1 Arabidopsis, 1680 g ae/ha glyphosate
[7] = Table 8, T1 Arabidopsis, 3360 g ae/ha glyphosate
[8] = Table 10, T1 Arabidopsis, 1,680 g ae/ha glyphosate
[9] = Table 12, T2 Arabidopsis, 1 copy, 420 g ae/ha glyphosate
[10] = Table 12, T2 Arabidopsis, 1 copy, 840 g ae/ha glyphosate
[11] = Table 12, T2 Arabidopsis, 1 copy, 1680 g ae/ha glyphosate
[12] = Table 12, T2 Arabidopsis, 1 copy, 3360 g ae/ha glyphosate
[13] = with TraP8 and with TraP14 / TraP24 respectively

B1: DGT-31 (v1): Streptomyces EPSP synthase enzyme (GENBANK YP_004922608.1) (protein)
chain: MTVIDIPGSKSVTARALFLAAAADGTTTLLRPLHSDDTEGFTEGLTRLGYAVVREPDRWHIEGRPSGPAAADAEVHCRDGATTARFLPTLAAAAASGTYRFDASAQMRRRPLAPLTEALRTLGVDLRHDGAEGHHPLTIQASGVKGGGLTLDAGESSQYLTALLMLGPLTAEGLRIEVTELVSAPYVEITLAMMRGFGVEVVREGNTFTVPPGGYRATTYAIEPDASTASYFFAAAALTGREVTVPGLGTGALQGDLRFTEVLRRMDADVRTTSDSTTVRSDGRLAGLTVNMRDISDTMPTLAAIAPYASSPVRIEDVANTRVKECDRLEACAQNLRSMGITVRTGPDWIEIHPGTPRPTEIATHGDHRIVMSFAVAGLRTPGMSYDDPGCVRKTFPRFHEEFAAFVERSSAGE
modifications: DGT-31 v3 nucleotide
Arabidopsis [1]; with transit peptide TraP8
  Herbicide tolerance: improved tolerance
Arabidopsis [1]; with transit peptide TraP23, compared to the negative control
  Herbicide tolerance: slight herbicide tolerance

B2: pDAB105534: TraP13 v2 -- dgt-28 v5: binary construct TraP13 v2:dgt-28 v5 (SEQ ID NO:37) (nucleic acid)
DNA: ATGGCACAAGTTAGCAGAATCTGTAATGGTGTGCAGAACCCATCTCTTATCTCCAATCTCTCAAAGTCCAGCCAACGTAAGTCTCCCCTCAGCGTGTCTCTGAAAACTCAGCAGCCCAGAGCTTCTTCATGGGGTTTGAAGAAATCTGGAACGATGCTTAACGGCTCAGTCATTCGTCCGGTTAAGGTGACAGCCTCCGTCTCCGCTGCTAGAGGGATGCCAGCCTTGTCTTTACCTGGATCAAAGAGTATCACAGCTAGGGCACTCTTTCTTGCTGCTGCTGCTGATGGGGTTACTACTTTGGTGAGGCCATTGAGAAGTGACGACACAGAAGGATTCGCTGAGGGGTTAGTTCGTTTAGGCTATCGTGTAGGGAGGACACCCGATACTTGGCAAGTCGATGGCAGACCACAAGGACCAGCAGTGGCTGAGGCTGACGTCTACTGTAGAGACGGAGCAACCACCGCTAGATTCTTGCCAACCTTAGCAGCTGCTGGTCACGGAACATACAGATTTGATGCTTCACCACAGATGAGGAGACGTCCTCTTTTGCCCTTAAGCAGAGCCTTGAGGGATTTGGGTGTCGATCTTAGACACGAAGAAGCTGAAGGTCATCACCCTCTGACTGTCCGTGCTGCTGGGGTTGAAGGAGGAGAGGTTACTTTGGATGCTGGTCAGTCAAGTCAGTATCTCACTGCCTTGTTGCTCCTTGGTCCCCTTACAAGACAAGGACTGAGGATAAGGGTTACTGATTTGGTGTCAGCACCATACGTGGAGATTACGCTTGCAATGATGAGGGCTTTCGGAGTTGAAGTGGCAAGGGAGGGAGATGTGTTCGTTGTTCCACCTGGTGGATATCGTGCAACTACGTATGCTATAGAACCCGACGCAAGTACTGCTTCTTACTTCTTCGCAGCTGCTGCTTTGACTCCTGGAGCTGAAGTGACTGTACCTGGGTTAGGCACGGGAGCACTTCAAGGAGATTTGGGATTTGTAGATGTCTTAAGGAGAATGGGAGCCGAGGTGTCCGTAGGAGCTGATGCAACCACTGTTAGAGGAACTGGTGAATTGCGTGGCCTTACAGCCAACATGAGAGACATAAGTGATACGATGCCGACCCTCGCTGCAATAGCACCCTTTGCTAGTGCTCCAGTTAGAATCGAGGATGTTGCCAACACTCGTGTCAAAGAATGTGACAGACTTGAGGCTTGTGCAGAGAACCTTAGGAGGTTGGGAGTAAGGGTTGCAACGGGTCCGGACTGGATTGAGATACACCCTGGTCCAGCTACTGGTGCTCAAGTCACAAGCTATGGTGATCACAGAATTGTGATGTCATTTGCAGTGACTGGACTTCGTGTGCCTGGGATCAGCTTCGACGACCCTGGCTGTGTTCGTAAGACTTTTCCTGGGTTTCACGAGGCTTTCGCAGAATTGAGGCGTGGCATTGGGAGCTGA
modifications: In-frame fusion of dgt-28 v5 and TraP13 v2
Arabidopsis [2]; [4]
  % Injury Ave: 14.0%
  % Injury Range (%): 0-50%
  No. plants with 20-40% injury: 0
  No. plants with <20% injury: 4
  No. plants with >40% injury: 1
Arabidopsis [2]; [5]
  % Injury Ave: 17.6%
  % Injury Range (%): 0-50%
  No. plants with 20-40% injury: 1
  No. plants with <20% injury: 3
  No. plants with >40% injury: 1
Arabidopsis [2]; [6]
  % Injury Ave: 39.0%
  % Injury Range (%): 5-100%
  No. plants with 20-40% injury: 0
  No. plants with <20% injury: 3
  No. plants with >40% injury: 2
Arabidopsis [2]; [7]
  % Injury Ave: 31.2%
  % Injury Range (%): 18-70%
  No. plants with 20-40% injury: 2
  No. plants with <20% injury: 2
  No. plants with >40% injury: 1
Arabidopsis [2]; [8]
  % Injury Ave: 39.0%
  % Injury Range (%): 5-100%
  No. plants with 20-40% injury: 0
  No. plants with <20% injury: 3
  No. plants with >40% injury: 2
Arabidopsis [2]; [9]
  % Injury Ave: 5.0%
  % Injury Range (%): 0-20%
  No. plants with 20-40% injury: 1
  No. plants with <20% injury: 3
  No. plants with >40% injury: 0
Arabidopsis [2]; [10]
  % Injury Ave: 5.0%
  % Injury Range (%): 0-20%
  No. plants with 20-40% injury: 1
  No. plants with <20% injury: 3
  No. plants with >40% injury: 0
Arabidopsis [2]; [11]
  % Injury Ave: 10.0%
  % Injury Range (%): 0-20%
  No. plants with 20-40% injury: 2
  No. plants with <20% injury: 2
  No. plants with >40% injury: 0
Arabidopsis [2]; [12]
  % Injury Ave: 15.0%
  % Injury Range (%): 5-30%
  No. plants with 20-40% injury: 2
  No. plants with <20% injury: 2
  No. plants with >40% injury: 0
Arabidopsis [3]
  T1 Families Tested Segregating at 1 Locus (%): 75%

B3: DGT-32: Streptomyces EPSP synthase enzyme (GENBANK ZP_04696613) (protein, listed as Streptomyces roseosporus)
chain: MTVIEIPGSKSVTARALFLAAAADGTTTLLRPLRSDDTEGFAEGLRNLGYAVEQEADRWRVQGRPAGPAATEADVYCRDGATTARFLPTLAAAAASGTYRFDASAQMRRRPLAPLTRALTALGVDLRHEGADGHHPLTVRAAGIEGGELTLDAGESSQYLTALLMLGPLTTKGLRIEVTELVSAPYVEITLAMMRDFGVEVEREGNTFTVPSPSSRLRSNRGGPIGGYRATTYAVEPDASTASYFFAAAALTGREVTVPGLGTGALQGDLRFVDVLREMGAEVSVGPDATTVRSTGRLRGITVNMRDISDTMPTLAAIAPYADGPVVIEDVANTRVKECDRLEACAENLRAMGITVHTGPDRIEIHPGTPKPTGIATHGDHRIVMSFAVAGLRTPGLTYDDPGCVRKTFPRFHEVFADFAHDLEGR
Arabidopsis [2]
  Glyphosate tolerance: significant tolerance to glyphosate
Arabidopsis [1]; [13]
  Herbicide tolerance: robust tolerance to glyphosate

B4: DGT-33: Streptomyces EPSP synthase enzyme (GENBANK NC_010572) (protein, listed as Streptomyces griseus)
chain: MGAVTVIDIPGSKSVTARALFLAAAADGTTTLLRPLRSDDTEGFAEGLKNLGYAVEQEADRWRVEGRPDGPAAPDADVYCRDGATTARFLPTLVAAAASGTYRFDASAQMRRRPLAPLTRALTALGVDLRHGGEEGHHPLTVRAAGIEGGDVVLDAGESSQYLTALLMLGPLTAKGLRIEVTDLVSAPYVEITLAMMRDFGVDVSREGNTFTVPSGGYRATAYAVEPDASTASYFFAAAALTGREVTVPGLGIGALQGDLRFVDVLRDMGAEVSVGPDATTVRSTGRLRGITVTMRDISDTMPTLAAIAPHADGPVRIEDVANTRVKECDRLEACAQNLRAMGITVHTGHDWIEILPGTPKPTGIATHGDHRIVMSFAVAGLLTPGLTYDDPGCVRKTFPRFHEVFADFAASPQA
Arabidopsis [2]
  Glyphosate tolerance: significant tolerance to glyphosate
Arabidopsis [1]; [13]
  Herbicide tolerance: robust tolerance to glyphosate
